B1: CPEB3 Ribozyme (parent)
chain: GGGGGCCACAGCAGAAGCGUUCACGUCGCGGCCCCUGUCAGAUUCUGGUGAAUCUGCGAAUUCUGCUGU

Variants of: B1
Experiment: self-cleavage, relative activity (ratio to wild type); higher = more cleavage; co-transcriptional

Variant	self-cleavage
GGGGGGCGCAGCAGAAGCGUUCACGUCGCGGCCCCUGUCAGAUUCUGGUGAAUCUGCGAAUUCUGCUGU [C6G A8G]	0.358
GGGGGACACAGCAGAAACGUUCACGUCGCGGCCCCUGUCAGAUUCUGGUGAAUCUGCGAAUUCUGCUGU [C6A G17A]	0.131
GGGGGACACAGCAGAAGCGUUCACGUCGCGGCCCCUGUCAGAUUCUGGUGAAUCUUCGAAUUCUGCUGU [C6A G56U]	0.44
GGGGGACACAGCAGAAGCGUUCACGUCGCGGCCCCUGUCAGAUUCUGGUGAAUCUACGAAUUCUGCUGU [C6A G56A]	0.423
GGGGGGGACAGCAGAAGCGUUCACGUCGCGGCCCCUGUCAGAUUCUGGUGAAUCUGCGAAUUCUGCUGU [C6G C7G]	0.0901
GGGGGGAACAGCAGAAGCGUUCACGUCGCGGCCCCUGUCAGAUUCUGGUGAAUCUGCGAAUUCUGCUGU [C6G C7A]	0.0493
GGGGUCCACAGCAGAAGCGUUCACGUCGCGGCCCCUGUCAGAUUCUGGUGAAUCUGCGAAUUCUGCCGU [G5U U67C]	0.628
GGGGGACACAGCAGAAGCGUUGACGUCGCGGCCCCUGUCAGAUUCUGGUGAAUCUGCGAAUUCUGCUGU [C6A C22G]	0.155
GGGGGACACAGCAGAAGCGUUCACGUCGCGGCCCCUGUCAGAUUCUGGUGAAUCUGCGAAAUCUGCUGU [C6A U61A]	0.217
GGGGUCCACAGCAGAAGCGUUCACGUCGCGGCCCCUGUCAGAUUCUGGUGAAUCUGCGAAUUCUGCUGA [G5U U69A]	0.503
GGGGUCCACAGCAGAAGCGUUCACGUCGCGGCCCCUGUCAGAUUCUGGUGAAUCUGCGAAUUCUGCUGC [G5U U69C]	0.749
GGGGGACACAGCAGAAGCGUUCACGUCGCGGCCCCUGUCAGAUUCUGGUAAAUCUGCGAAUUCUGCUGU [C6A G50A]	0.708
GGGGGACACAGCAGAAGCGGUCACGUCGCGGCCCCUGUCAGAUUCUGGUGAAUCUGCGAAUUCUGCUGU [C6A U20G]	0.161
GGGGGGCACAGCAGAAGCGUUCACGUCGCGGCCCCUGUCAGAUUCUGGUGAAUCUGCGUAUUCUGCUGU [C6G A59U]	0.152
GGGGGACACAGCAGAAGCGUUCACGUCGCGGCCCCUGUCAGAUUAUGGUGAAUCUGCGAAUUCUGCUGU [C6A C45A]	0.523
GGGGGACACAGUAGAAGCGUUCACGUCGCGGCCCCUGUCAGAUUCUGGUGAAUCUGCGAAUUCUGCUGU [C6A C12U]	0.581
GGGGGGCACAGCAGAAGCGUUCACGUCGCGGCCCCUGUCAGAUUCUGGUGAAUCUGCGACUUCUGCUGU [C6G A60C]	0.0823
GGGGGGCACAGAAGAAGCGUUCACGUCGCGGCCCCUGUCAGAUUCUGGUGAAUCUGCGAAUUCUGCUGU [C6G C12A]	0.102
GGGGGGCACAGGAGAAGCGUUCACGUCGCGGCCCCUGUCAGAUUCUGGUGAAUCUGCGAAUUCUGCUGU [C6G C12G]	0.253
GGGGGGCACAGUAGAAGCGUUCACGUCGCGGCCCCUGUCAGAUUCUGGUGAAUCUGCGAAUUCUGCUGU [C6G C12U]	0.271

Variant	self-cleavage
GGGGGACACAGCAGAAGCGUUCACGUCGCGGCCCGUGUCAGAUUCUGGUGAAUCUGCGAAUUCUGCUGU [C6A C35G]	0.134
GGGGGACACAGCAGAAGCGUUCACGUCGCGGCCCUUGUCAGAUUCUGGUGAAUCUGCGAAUUCUGCUGU [C6A C35U]	0.27
GGGGGGCACAGCAGUAGCGUUCACGUCGCGGCCCCUGUCAGAUUCUGGUGAAUCUGCGAAUUCUGCUGU [C6G A15U]	0.128
GGGGGGCACAGCAGGAGCGUUCACGUCGCGGCCCCUGUCAGAUUCUGGUGAAUCUGCGAAUUCUGCUGU [C6G A15G]	0.212
GGGGGACACAGCAGAAGCGUUCACGUCGCGGCCCCUGUCAGAUUCUGGUGAAUCUGCGAAUUUUGCUGU [C6A C63U]	0.505
GGGGGACACAGCAGAAGCGUUCACGUCGCGGCCCCUGUCAGAUUCUGGUGAAUCUGCGAAUUGUGCUGU [C6A C63G]	0.205
GGGGGACACAGCAGAAGCGUUCACGUCGCGGCCCCUGUCAGUUUCUGGUGAAUCUGCGAAUUCUGCUGU [C6A A42U]	0.374
GGGGGACACAGCAGAAGCGUUCACGUCGCGGCCCCUGUCAGAUUCUGGAGAAUCUGCGAAUUCUGCUGU [C6A U49A]	0.641
GGGGGACACAGCAGAAGCGUUCACGUCGCGGCCCCUGUCAGAUUCUGGUGAAUCUGCGAAUUCCGCUGU [C6A U64C]	0.304
GGGGGACACAGCAGAAGCGUUCACGUCGCGGCCCCUGACAGAUUCUGGUGAAUCUGCGAAUUCUGCUGU [C6A U38A]	0.3
GGGGGACACAGCAGAAGCGUUCACGUCGCGGCCCCAGUCAGAUUCUGGUGAAUCUGCGAAUUCUGCUGU [C6A U36A]	0.128
GGGGGACACAGCAGAAGCGUUCACGUCGCGGCCCCGGUCAGAUUCUGGUGAAUCUGCGAAUUCUGCUGU [C6A U36G]	0.138
GGGGGACACACCAGAAGCGUUCACGUCGCGGCCCCUGUCAGAUUCUGGUGAAUCUGCGAAUUCUGCUGU [C6A G11C]	0.29
GGGGGACACAGCUGAAGCGUUCACGUCGCGGCCCCUGUCAGAUUCUGGUGAAUCUGCGAAUUCUGCUGU [C6A A13U]	0.346
GGGGGACACAGCCGAAGCGUUCACGUCGCGGCCCCUGUCAGAUUCUGGUGAAUCUGCGAAUUCUGCUGU [C6A A13C]	0.262
GGGGGACACAGCAGAAGCGUUCACGUCGCGGCCCCUGUCAGAUUCUGGUGAAUCUGCGAAUUCUGCGGU [C6A U67G]	0.835
GGGGGACACAGCAGAAGCUUUCACGUCGCGGCCCCUGUCAGAUUCUGGUGAAUCUGCGAAUUCUGCUGU [C6A G19U]	0.131
GGGGGACACAGCAGGAGCGUUCACGUCGCGGCCCCUGUCAGAUUCUGGUGAAUCUGCGAAUUCUGCUGU [C6A A15G]	0.467
GGGGGACACAGCAGUAGCGUUCACGUCGCGGCCCCUGUCAGAUUCUGGUGAAUCUGCGAAUUCUGCUGU [C6A A15U]	0.176
